In US20060121462A1, “Receptor and screening methods” (priority 2003, published 2006):

Columns and labels:
human C5L2 (human) [1] = target: human C5L2 (human) (UniProt Q9P296); test: flow cytometry, binding/uptake of FLUOS-ASP on HEK 293 cells transiently transfected with C5L2, 30 min at 37 C
human C5L2 (human) [2] = target: human C5L2 (human) (UniProt Q9P296); test: competition with 50 pM 125I-C3a on C5L2-transfected RBL cells, 4 C
human C5L2 (human) [3] = target: human C5L2 (human) (UniProt Q9P296); test: competition with 50 pM 125I-C5a on C5L2-transfected RBL cells, 4 C

Sequence of recombinant C3a des-Arg^77, P01024 672-747 (ligand; other documents disagree on this pair) (P01024 672-747 limits assumed): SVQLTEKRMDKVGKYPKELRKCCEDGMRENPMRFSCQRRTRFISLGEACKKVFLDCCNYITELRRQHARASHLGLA
Sequence of human C5L2 (human) (Q9P296 whole entry): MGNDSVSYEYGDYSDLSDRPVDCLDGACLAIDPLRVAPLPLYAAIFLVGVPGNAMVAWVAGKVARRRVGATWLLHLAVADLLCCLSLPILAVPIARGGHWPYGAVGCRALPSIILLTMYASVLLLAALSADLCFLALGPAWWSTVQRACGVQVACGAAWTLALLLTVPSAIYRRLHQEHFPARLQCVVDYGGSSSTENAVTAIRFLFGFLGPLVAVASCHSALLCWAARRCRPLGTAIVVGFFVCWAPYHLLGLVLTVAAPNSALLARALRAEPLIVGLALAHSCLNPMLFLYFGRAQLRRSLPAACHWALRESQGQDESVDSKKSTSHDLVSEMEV
Sequence of recombinant His6-tagged C3a, P01024 672-748 (ligand; other documents disagree on this pair) (P01024 672-748 limits assumed): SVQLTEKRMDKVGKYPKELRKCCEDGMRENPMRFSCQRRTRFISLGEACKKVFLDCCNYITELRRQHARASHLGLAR

With “plasma ASP (C3a des-Arg^77), purified from human plasma, P01024 672-747 (ligand; FLUOS (fluorescein) label in the flow cytometry assays, ^125I label in one assay; labelled residues not stated; other documents disagree on this pair)” the EC50 (human C5L2 (human) [1]) was 0.003 µM.
For “recombinant C3a des-Arg^77, P01024 672-747 (ligand; other documents disagree on this pair)”, the IC50 (human C5L2 (human) [2]) was 0.526 µM, the pD2 (human C5L2 (human) [2]) was 6.24 -log IC50 and the IC50 (human C5L2 (human) [3]) was 180 µM. For the same substance, the pD2 (human C5L2 (human) [3]) was 4.73 -log IC50.
“recombinant His6-tagged C3a, P01024 672-748 (ligand; other documents disagree on this pair)” was tested, and the IC50 (human C5L2 (human) [2]) was 0.167 µM, the pD2 (human C5L2 (human) [2]) was 6.78 -log IC50 and the IC50 (human C5L2 (human) [3]) was 230 µM. The pD2 (human C5L2 (human) [3]) was 4.64 -log IC50.
